Laboratory results published in patent US20080175935A1, “Method to Treat Skin Conditions with Narcissus Tazetta Bulb Extract” (NuSkin International, Inc., priority 2004, published 2008).

Tested on: arNOX
Assay: arNOX assay: ferricytochrome c reduction (superoxide production) in sera
Assay type: biochemical, human
Conditions: for Rate of reduction of ferricytochrome c, +Proteinase K: pooled serum
From the text: Reduction of ferric cytochrome c by superoxide was employed as a standard measure of superoxide formation (Mayo, L. A. and Cumutte, J. (1990) Meth. Enzyme. 186, 567-575. 7. Butler, J, Koppenol, W. H. and Margollash, E. (1982) J. Biol. Chem. 257, 10747).
Assays of ferric cytochrome c reduction in sera compared 53 samples from young (20 to 40 y) and 65 samples from aged (80 to 100) individuals. […]
Measurement of arNOX activity based on ferricytochrome c reduction as a measure of superoxide production were taken. The rate of reduction of ferricytochrome c was determined from the increase in absorbance at 550 nm with 540 nm as reference. This is a widely accepted method when coupled to superoxide dismutase inhibition for the measurement of superoxide generation. The assay consists of 150 μl (2 mg/ml) of oxidized ferricytochrome c solution and 150 μl serum or 40 μl buffy coats in PBSG buffer (8.06 g NaCl, 0.2 g KCl, 0.18 g Na2HPO4, 0.26 g KH2PO4, 0.13 g CaCl2, 0.1 g MgCl2, 1.35 g glucose dissolved in 1000 ml deionized water, adjusted to pH 7.4, filtered and stored at 4° C.). Rates were determined using a SLM Aminco DW-2000 spectrophotometer (Milton Roy, Rochester, N.Y., USA) in the dual wave length mode of operation with continuous measurements over 1 min every 1.5 min. After 45 min, test compound was added and the reaction was continued for 45 min. A millimolar extinction coefficient of 19.1 cm^−1 was used for reduced ferricytochrome c. (D. M. Morré, F. Guo and D. J. Morré, 2003, Mol. Cell. Biochem. 254: […]).

B1: Proteinase K: protease used to digest sera (protein, UniProt P06873 106-384, looked up)
Proteinase K: AAQTNAPWGLARISSTSPGTSTYYYDESAGQGSCVYVIDTGIEASHPEFEGRAQMVKTYYYSSRDGNGHGTHCAGTVGSRTYGVAKKTQLFGVKVLDDNGSGQYSTIIAGMDFVASDKNNRNCPKGVVASLSLGGGYSSSVNSAAARLQSSGVMVAVAAGNNNADARNYSPASEPSVCTVGASDRYDRRSSFSNYGSVLDIFGPGTSILSTWIGGSTRSISGTSMATPHVAGLAAYLMTLGKTTAASACRYIADTANKGDLSNIPFGTVNLLAYNNYQA
Rate of reduction of ferricytochrome c, +Proteinase K (35-45 males): 0.27 ± 0.16 nmoles min^−1 mi serum^−1
Rate of reduction of ferricytochrome c, +Proteinase K (75-85 females): 1.0 ± 0.18 nmoles min^−1 mi serum^−1
Rate of reduction of ferricytochrome c, +Proteinase K (75-85 males): 0.72 ± 0.14 nmoles min^−1 mi serum^−1
Rate of reduction of ferricytochrome c, +Proteinase K (<35 y females): 0.26 ± 0.17 nmoles min^−1 mi serum^−1
Rate of reduction of ferricytochrome c, +Proteinase K (>90 females): 0.94 ± 0.24 nmoles min^−1 mi serum^−1
change in the rate of arNOX following proteinase K digestion (sera): no significant decrease
Superoxide production (reduction of ferricytochrome c), without superoxide dismutase (sera of aged (80-98 y) individuals, after proteinase K, n = 10): 0.6 ± 0.2 Nmoles/min/mi/sera
